# In doi:10.1101/2025.07.08.663703, “Recruitment of Mre11 to recombination sites during meiosis” (bioRxiv, 2025):
# Target: T1, yeast Smt3 (Smt3 6xHis) (yeast, UniProt Q12306 1-101 = SUMO)
# T1 construct: Smt3 (SUMO), yeast; Uniformly 13C,15N labelled for the NMR experiments; also called SUMO; U-[13C,15N]; Smt3; source: E. coli BL21 (DE3)pLysS, purified (Ni-NTA)
# Experiment: ITC; 2 mM peptide in the syringe, 150 μM or 300 μM Smt3 in the cell; 20 mM NaPi 100 mM NaCl pH 7.5, 10% DMSO, 25°C; single binding site model
# Details: both partners purified
# T1 sequence (Q12306 whole entry): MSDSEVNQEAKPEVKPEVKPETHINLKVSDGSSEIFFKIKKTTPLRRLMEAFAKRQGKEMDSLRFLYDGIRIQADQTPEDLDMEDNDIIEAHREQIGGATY
binder,measurement,value
"ENDIIMVSTDE [synthetic Mre11-SIM3 peptide, wild type]",Kd,20 ± 10 µM
